To fix the notation:
B3: anti-human IDO2 monoclonal antibody 18-1 (antibody, V domains shown)
VH: QVRLQQPGAELVKPGASVKLSCKASGYTFTSYWMHWVKQRPGQGLEWIGEINPSTGRTNYNERFRSKATLTVDKFSTTAYMQFSSLTSEDSAVYYCVGLRFAYWGQGTLVSVSA
VL: DVVMTQTPLSLPVSFGDQVSISCRSSQSLADSYGNTYLSWYLHKPGQSPQLLIYGISNRFSGVPDRFSGSGSGTDFTLKISTIKPEDLGMYYCLQGTHQPLTFGAGTKLELKR
notes: Mouse hybridoma antibody; It was detected with an anti-mouse IgG Fc-specific secondary antibody; also called mAb 18-1

Assay [1] has as its target T1, human IDO1 with V5 tag, expressed in T-REx cells (human, UniProt P14902 1-403).
T1 construct: Cell extract fractionated for the Western blot; not shown: V5 tag
Nature of the assay: Western blot of T-REx cell extracts; HRP secondary antibody, chemiluminescence. How it is done:
(§1) FIG. 3 is a Western blot analysis using IDO-expressing Tᵣₑₓ cells. All IDO expressed proteins mouse and human IDO 1 and IDO2 contain a V5 tag. […] Cell extracts for IDO expressing cells or the parental T-REX line were prepared and fractionated as previously described (PMID: 17671174 & 26717206). Detection of indicated proteins was done using standard blotting methods, HRP conjugated secondary antibodies and chemiluminescence detection reagents.
(§2) A Western blot analysis was conducted using IDO-expressing Tᵣₑₓ cells. All IDO expressed proteins mouse and human IDO 1 and IDO2 containing a V5 tag. […] Cell extracts for IDO expressing cells or the parental T-REX line were prepared and fractionated as previously described (See US2019/0062452, incorporated by reference herein). Detection of indicated proteins was done using standard blotting methods, HRP conjugated secondary antibodies and chemiluminescence detection reagents.

Assay [2] has as its target T2, mouse IDO1 with V5 tag, expressed in T-REx cells (mouse, UniProt P28776 1-407).
T2 construct: Cell extract fractionated for the Western blot; also called murine IDO1; not shown: V5 tag
The assay is described as above. How it is done: as §1, §2

Assay [3] addresses T3, recombinant human IDO2 protein (human, UniProt Q6ZQW0 1-407, limits assumed).
T3 construct: also called human Indoleamine 2,3-Dioxygenase 2; human IDO2 recombinant protein
T3 sequence: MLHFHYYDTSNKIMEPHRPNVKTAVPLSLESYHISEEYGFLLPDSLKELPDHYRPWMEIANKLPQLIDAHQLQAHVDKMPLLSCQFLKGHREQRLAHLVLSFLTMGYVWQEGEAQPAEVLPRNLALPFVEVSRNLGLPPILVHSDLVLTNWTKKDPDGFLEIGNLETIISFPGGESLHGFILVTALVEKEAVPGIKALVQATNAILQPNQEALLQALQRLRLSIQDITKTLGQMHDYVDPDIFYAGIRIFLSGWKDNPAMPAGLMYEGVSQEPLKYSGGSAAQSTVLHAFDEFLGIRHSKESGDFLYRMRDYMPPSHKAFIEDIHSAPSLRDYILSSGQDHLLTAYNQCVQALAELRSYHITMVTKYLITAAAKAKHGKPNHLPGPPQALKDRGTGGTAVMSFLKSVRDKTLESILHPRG
Description: ELISA; plate coated with 100 ng recombinant human IDO2; detection with anti-mouse IgG Fc-specific HRP and ABTS. How it is done:
FIG. 1 is a graph showing the binding curves of three anti-human IDO2 monoclonal antibodies 13-3, 18-1 and 20-10 described herein and their binding concentrations vs. human IDO2 recombinant protein. Three cloned hybridomas were generated against the human IDO2 amino acids #331-351 (NP 919270; SEQ ID NO: 23). ELISA analysis compares the binding of the anti-human IDO2 antibodies (mAbs) to recombinant human IDO2 protein (100 ng of recombinant human IDO2 protein was used to coat the ELISA plate). Increasing concentrations of mAb were incubated with the coated protein and anti-IDO2 Ig that bound the fixed protein was detected with an anti-mouse IgG Fc-specific HRP secondary antibody and ABTS substrate. Data is presented as Mean±SD.
Three cloned hybridomas were generated against the human IDO2 amino acids #331-351 (NP 919270; SEQ ID NO: 23). ELISA analysis compares the binding of the anti-human IDO2 antibodies (mAbs) to recombinant human IDO2 protein (100 ng of recombinant human IDO2 protein was used to coat the ELISA plate). Increasing concentrations of mAb were incubated with the coated protein and anti-IDO2 Ig that bound the fixed protein was detected with an anti-mouse IgG Fc-specific HRP secondary antibody and ABTS substrate.

The target in assay [4] is B3. Nature of the assay: competitive ELISA; soluble peptide titrated against 1 µg/ml mAb in solution; competitor: coated recombinant human IDO2 (100 ng); plate-bound mAb detected with anti-mouse IgG Fc HRP and ABTS. The method, then: FIGS. 2A and 2B show results of a competitive ELISA that was developed to test the specificity of the antibodies. 100 ng of the recombinant human IDO2 protein was used to coat the ELISA plate. A constant amount (1 μg/ml) of IDO2 antibody was incubated in solution with specified concentrations of soluble peptide. If the antibody interacted with the soluble peptide, the antibody was then unavailable to bind the coated antigen. Anti-IDO2 Ig that bound the fixed protein was detected with an anti-mouse IgG FC-specific HRP secondary antibody and ABTS substrate. Data is presented as Mean±SD. […] FIG. 2A is a graph of a competitive ELISA comparing the recognition of the three anti-human IDO2 mAbs of FIG. 1 to the human epitope, plotting absorbance vs. epitope peptide concentration. FIG. 2B is a graph of a competitive ELISA comparing the recognition of the three anti-human IDO2 mAbs of FIG. 1 to the mouse epitope, plotting absorbance vs. epitope peptide concentration.
A competitive ELISA was developed to test the specificity of the antibodies. 100 ng of the recombinant human IDO2 protein was used to coat the ELISA plate. A constant amount (1 μg/ml) of IDO2 antibody was incubated in solution with specified concentrations of soluble peptide. […] Anti-IDO2 Ig that bound the fixed protein was detected with an anti-mouse IgG FC-specific HRP secondary antibody and ABTS substrate.

T1 sequence (P14902 whole entry): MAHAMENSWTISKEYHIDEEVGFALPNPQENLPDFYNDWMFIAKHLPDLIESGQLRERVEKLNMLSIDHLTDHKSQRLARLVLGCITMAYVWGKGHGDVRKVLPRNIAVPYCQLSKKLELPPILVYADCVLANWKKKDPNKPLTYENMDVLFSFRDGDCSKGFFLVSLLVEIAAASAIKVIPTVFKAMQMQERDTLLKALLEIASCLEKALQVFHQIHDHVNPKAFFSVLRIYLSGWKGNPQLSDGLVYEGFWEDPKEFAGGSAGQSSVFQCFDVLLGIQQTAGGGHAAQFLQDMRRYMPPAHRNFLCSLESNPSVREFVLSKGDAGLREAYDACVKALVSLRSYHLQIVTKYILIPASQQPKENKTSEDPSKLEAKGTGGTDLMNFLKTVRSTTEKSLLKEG
T2 sequence (P28776 whole entry): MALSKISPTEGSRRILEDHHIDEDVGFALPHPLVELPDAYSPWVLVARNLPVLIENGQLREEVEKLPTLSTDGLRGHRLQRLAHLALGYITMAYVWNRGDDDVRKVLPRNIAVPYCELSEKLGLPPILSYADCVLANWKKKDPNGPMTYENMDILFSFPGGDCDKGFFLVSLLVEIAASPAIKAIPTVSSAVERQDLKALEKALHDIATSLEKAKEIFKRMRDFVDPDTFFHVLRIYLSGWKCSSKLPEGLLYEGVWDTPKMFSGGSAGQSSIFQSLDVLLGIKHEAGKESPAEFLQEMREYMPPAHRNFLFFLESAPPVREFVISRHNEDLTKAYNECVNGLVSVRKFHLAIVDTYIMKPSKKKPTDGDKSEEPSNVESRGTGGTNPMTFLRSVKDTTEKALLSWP

B1: anti-human IDO2 monoclonal antibody 13-3 (antibody, V domains shown)
VH: QVRLQQPGAELVKPGASVKLSCKASGYTFTSYWMHWVKQRPGQGLEWIGEINPSTGRTNYNERFRSKATLTVDKFSTTAYMQFSSLTSEDSAVYYCVGLRFAYWGQGTLVSVSA
VL: DVVMTQTPLSLPVSFGDQVSISCRSSQSLADSYGNTYLSWYLHKPGQSPQLLIYGISNRFSGVPDRFSGSGSGTDFTLKISTIKPEDLGMYYCLQGTHQPLTFGAGTKLELKR
notes: Mouse hybridoma antibody raised against human IDO2 amino acids 331-351; It was detected with an anti-mouse IgG Fc-specific secondary antibody; also called mAb 13-3
For the molecule B1, the binding result in assay [1] and in assay [2] was “no binding” in each case. For the same molecule, in assay [3], the “EC50 (read off the curve)” value was roughly 0.01 µg/mL.

B2: anti-human IDO2 monoclonal antibody 20-10 (antibody, V domains shown)
VH: QVRLQQPGAELVKPGASVKLSCKASGYTFTSYWMHWVKQRPGQGLEWIGEINPSTGRTNYNERFRSKATLTVDKFSTTAYMQFSSLTSEDSAVYYCVGLRFAYWGQGTLVSVSA
VL: DVVMTQTPLSLPVSFGDQVSISCRSSQSLADSYGNTYLSWYLHKPGQSPQLLIYGISNRFSGVPDRFSGSGSGTDFTLKISTIKPEDLGMYYCLQGTHQPLTFGAGTKLELKR
notes: Mouse hybridoma antibody; It was detected with an anti-mouse IgG Fc-specific secondary antibody; also called mAb 20-10
In the case of B2, the binding result in assay [1] and in assay [2] was “no binding” throughout. In addition, the “EC50 (read off the curve)” value in assay [3] was roughly 0.02 µg/mL.
For the molecule B3, the binding result in assay [1] and in assay [2] was “no binding” in each case. In addition, in assay [3], the “EC50 (read off the curve)” value is roughly 0.02 µg/mL.
In the case of RDYILSSGQDHLLTAYNQCVQ (also called hIDO2 Peptide) [Human Epitope], the “IC50 (read off the curve)” value in assay [4] was roughly 7 µM.
In the case of RDYILASGPGDCLMAYNQCVE [murine IDO2 epitope peptide (amino acids 331-351 of murine IDO2)], the “IC50 (read off the curve)” value in assay [4] was roughly 9 µM.

The values above are taken from patent US20230242674A1 (LANKENAU INSTITUTE FOR MEDICAL RESEARCH, published 2023).
